# Test results as given in patent US20220025029A1 (Regeneron, published 2022).
# Numbering of substitutions follows the chain as printed. In names and notes the source's numbering stands.
# B1: H4H1232N (antibody, human IgG4, V domains shown)
# VH: EVQLVESGGGLVKPGGSLRLSCAASGFTFRNYNINWVRQAPGKGLEWVSLISGSSSYIYYADSVKGRFTVSRDNAKNSLYLQMNSLRAEDTAVYYCARRTLSYYVMDVWGQGTTVTVSS
# VL: DIQVTQSPSPLSASVGDRVTITCRASQGISNYLAWYQQKPGRVPQLLIYAASTLQSGVPSRFSGSGSGTDFTLTISSLQPEDVATYYCQKYNSAPYTFGQGTKLEIK
# notes: human IgG4 Fc (H4H prefix)
# B2: H4H2864P (antibody, human IgG4, V domains shown)
# VH: EVQLVESGGGLAQPGGSLRLSCAASGFTFNNYAMTWVRQAPGKGLDWVSAISDSGRSTFSADSVKGRFTISRDNSKNTLYLQMDSLRAEDTALYYCAKHRNWNYPVFDYWGQGTLVTVSS
# VL: DIQLTQSPSFLSASVGDRVTITCWASQGISSYLAWYQQKPGKAPKLLIYSASTLQSGVPSRFSGSGSGTEFTLTISSLQPEDFATYYCQQLNSYPFTFGPGTKVDIK
# notes: human IgG4 Fc (H4H prefix)
# B3: H4H2645P (antibody, human IgG4, V domains shown)
# VH: EVQLVESGGGLVQPGGSLRLSCAASGFTFSTYAMHWVRQAPGKGLEWVSSISGRGRNSDHADSVKGRFTISRDNSKNTLYLQMNSLRAEDTAVYYCARTEYFHHWGQGTLVTVSS
# VL: DIQMTQSPSSLSASVGDRITITCRASQDINNYLAWFQQKPGKAPKSLIYGASSLQSGVPSKFSGSGSGTDFTLTISSLQPEDFATYYCQQYSSYPFTFGPGTKVDIK
# notes: human IgG4 Fc (H4H prefix)
# B4: H4H1616N (antibody, human IgG4, V domains shown)
# VH: EVELLESGGGLVQPGGSLRLSCAASGFTFSSYAMSWVRQAPGKGLEWVSSISGRVGSTHFADSVKGRFTFSRDNSKNTLYLQLSSLRAEDTAVYYCARSRGAAYFDYWGQGTLVTVSS
# VL: DIQMTQSPSSLSASVGDRVTITCQANQDISNFLNWYQQRPGKAPNLLIYAASNLETGVPSRFSGSGSGTDFTFTISSLQPEDIATYYCQHYDNFPFTFGPGTKVDIK
# notes: human IgG4 Fc (H4H prefix)
# B5: H4H2607B (antibody, human IgG4, V domains shown)
# VH: EVQLVESGGGLVKPGGSLRLSCAASGFTFSDYYMNWIRQAPGKGLEWISYLSSSGSATYYADSVKGRFTISRDNAKNSLYLQMNSLRAEDTAVYYCARDGKYNTVAGDYWGQGTTVTVSS
# VL: DIQLTQSPSSLSASVGDRVTITCRASQGIRNDLGWYQQKPGKAPKRLIYAASSLQSGVPSRFSGSGSGTEFTLTISSLQPEDFATYYCLQHNSYPYTFGQGTKVEIKR
# notes: human IgG4 Fc (H4H prefix)
# B6: H4H2797P (antibody, human IgG4, V domains shown)
# VH: QVQLVESGGGVVLPGRSLRLSCAASGFTFSSYLMYWVRQAPGKGLEWVAVIWYDGSNKFYGDSVKGRFTISRDNSKNTLYLQMNSLRAEDTAVYYCARDNGNSGYEDSWNAFDIWGQGTMVTVSS
# VL: B3 VL with I19V, N30Y, G50A, S56T, K61Q, S92N, S93N
# notes: human IgG4 Fc (H4H prefix)
# B7: H4H2597B (antibody, human IgG4, V domains shown)
# VH: EVQLVESGGGLVQPGGSLRLSCAVSGFTFSNYAMNWVRQAPGKGLEWVSVISDSGRSTYYADSVKGRFTISRDNSKNTLYLQMNSLRAEDTAVYFCAKRYNWNLHYFDYWGQGTTVTVSS
# VL: EIVLTQSPDFQSVTPKEKVTITCRASQSIGGSLHWYQQKPDQSPKLLIKYASQSFSGVPSRFSGSGSGTDFTLTINSLEAEDAATYYCLQSSSLRTFGQGTKVEIKR
# notes: human IgG4 Fc (H4H prefix)
# B8: H4H2606B (antibody, human IgG4, V domains shown)
# VH: EVQLVESGGGLVKPGGSLRLSCAASGFTFSDYYMNWIRQAPGKGLEWVSYISSSGNSIYYADSVKGRFTISRDNAKNSLFLQMSSLRAEDTAVYYCARDGRYNDRRRGYYWGQGTLVTVSS
# VL: B7 VL with L4M, G31S
# notes: human IgG4 Fc (H4H prefix)
# B9: H4H3467D (bispecific antibody, V domains shown)
# VH 1: B2 VH
# VH 2: B1 VH
# VL: B2 VL
# notes: Bi-specific with a common kappa light chain on both Fab arms; human IgG4 Fc by the H4H prefix
# B10: H4H8751D (bispecific antibody, V domains shown)
# VH 1: B3 VH with T31S, H35S, S50A, R56Y, S58A, H60Y, R98K, T99L, H103D, H104Y
# VH 2: B1 VH
# VL: DIQMTQSPSTLSASVGDRVTITCRASQSISSWLAWYQQKPGKAPKLLIYKASSLESGVPSRFSGSGSGTDFTLTISSLRPEDFATYYCQQYNSYPLTFGGGTKVEIK
# notes: as for B9
# Biological target: T1, natural Fel d1 (Indoor Biotech, #NA-FD1-2) (cat, UniProt P30438 23-92; P30440 18-109)
# T1 construct: Bought natural heterodimeric glycoprotein, chains linked by disulfide bonds; also called nFel d1; nFel d 1
# Experiment: Octet BLI, mAb captured on anti-hFc tip, 500 nM nFel d1
# Procedure: (§1) A binding experiment was performed using an Octet Red biosensor system (Fortebio Inc.) to determine cross-competition for a panel of 8 anti-Fel d1 antibodies binding to natural Fel d1 (nFel d1; Indoor Biotechnologies, #NA-FD1-2). The experiment was performed at 25° C. in HBST buffer (0.01 M HEPES pH7.4, 0.15M NaCl, 3 mM EDTA, 0.05% v/v Surfactant P20) containing 0.1 mg/mL BSA. A washing step with the HBST buffer was performed between each binding step, and plates were agitated during the binding and washing steps using an orbital plate shaker at 1000 rpm. […] The coated sensor tips were then blocked for 5 minutes with a 100 ug/mL solution of an irrelevant antibody.
# T1 sequence (P30438 other isoform, or with tags, fused parts or gaps, chain 1 of 2): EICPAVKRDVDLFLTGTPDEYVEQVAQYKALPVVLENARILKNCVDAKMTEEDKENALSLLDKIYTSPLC
# T1 sequence (P30440 18-109, chain 2 of 2): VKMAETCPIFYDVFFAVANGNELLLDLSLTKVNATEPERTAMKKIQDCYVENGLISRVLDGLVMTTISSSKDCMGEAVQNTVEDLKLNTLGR
row,Binder,Amount of 500 nM nFel d1 Bound [nm]
1,B1,0.08
2,B2,0.08
3,B3,0.1
4,B4,0.09

# Biological target: T1, natural Fel d1 (Indoor Biotech, …)
# Experiment: SPR (Biacore), mAb captured, natural Fel d1 injected, 25 C;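 also: rate constants obtained by fitting association and dissociation phases to a one-to-one binding model, with Kd and half-life derived from those rate constants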
# Procedure: Binding associative and dissociative rate constants (kₐ and kd, respectively) and calculated equilibrium dissociation constants and dissociative half-lives (KD and t_{1/2}, respectively) for antigen binding to anti-Fel d1 monoclonal antibodies were determined using a real-time surface plasmon resonance biosensor (Biacore T200 or Biacore 2000) assay. […] Antibody-antigen association was monitored for 3 to 5 minutes, and the dissociation of antigen from the captured monoclonal antibody (in running buffer alone at 25° C.) was monitored for 10 or 15 minutes. Kinetic association (kₐ) and dissociation (kd) rate constants were determined by processing and fitting the data to a 1:1 binding model using Scrubber 2.0 curve fitting software. Binding dissociation equilibrium constants (KD) and dissociative half-lives (t_{1/2}) were calculated from the kinetic rate constants as: KD=kd/kₐ and t_{1/2}=ln(2)/kd.
Binder,Kd [nM],koff [s⁻¹],kon [M⁻¹ s⁻¹],t1/2 [min]
B1,0.207,0.000331,1.6e+06,35
B5,0.307,0.00091,2.97e+06,13
B2,0.801,0.00135,1.68e+06,9
B3,0.459,0.000261,569000,44
B6,35.4,0.00713,202000,2
B7,0.65,0.0015,2.31e+06,8
B8,0.765,0.000707,924000,16
B4,5.14,0.00124,241000,9

# Biological target: T1, natural Fel d1 (Indoor Biotech, …)
# Experiment: SPR (Biacore 2000), mAb captured via anti-human Fc, nFel d 1 injected, 25 C
# Procedure: Binding association and dissociation rate constants (kₐ and kd, respectively), equilibrium dissociation constants and dissociation half-lives (KD and t₁₁₂, respectively) for natural Fel d 1 (subsequently referred to as nFel d 1) binding to purified anti-Fel d 1 monospecific and bispecific antibodies were determined using a real-time surface plasmon resonance biosensor assay on a Biacore 2000 instrument. […] All the Biacore binding studies were performed at 25° C. in HBSP+ running buffer (0.01M HEPES pH 7.4, 0.15M NaCl, 3 mM CaCl₂), 3 mM MgCl₂, 0.05% v/v Surfactant P20). […] Association of nFel d 1 to the captured monoclonal antibodies was monitored for 4 minutes and the dissociation of nFel d 1 in HBSP+ running buffer was monitored for 7 minutes. Kinetic association (kₐ) and dissociation (kd) rate constants were determined by fitting the real-time sensorgrams to a 1:1 binding model with mass transport limitation using Scrubber 2.0c curve fitting software. Binding dissociation equilibrium constants (KD) and dissociative half-lives (t_{1/2}) were then calculated from the kinetic rate constants as: KD (M)=kd kₐ and t_{1/2} (min)=[ln 2/(60*kd)].
Binder,600 nM nFel d 1 Bound (RU),Kd [nM],koff [s⁻¹],kon [M⁻¹ s⁻¹],t1/2 [min]
B1,42,0.155,0.000472,3.05e+06,24
B9,35,0.25,0.000712,2.85e+06,16
B10,30,0.347,0.00062,1.79e+06,19

# Biological target: T1, natural Fel d1 (Indoor Biotech, …)
# Experiment: Octet BLI sandwich; captured mAb-1 H4H1300N, which did not pre-complex with nFel d1; self-competition value subtracted
# Procedure: as §1
row,Binder,Response of mAb-2 Binding to nFel d1 pre-complexed with mAb-1 [nm]
1,B1,0.02
2,B2,0.06
3,B3,0.05
4,B4,0.06

# Biological target: T1, natural Fel d1 (Indoor Biotech, …)
# Experiment: Octet BLI sandwich; nFel d1 pre-complexed with captured mAb-1 H4H1232N (competitor); self-competition value subtracted
# Procedure: as §1
row,Binder,Response of mAb-2 Binding to nFel d1 pre-complexed with mAb-1 [nm]
1,B1,0
2,B2,0.71
3,B3,0.75
4,B4,0.54

# Biological target: T1, natural Fel d1 (Indoor Biotech, …)
# Experiment: Octet BLI sandwich; nFel d1 pre-complexed with captured mAb-1 H4H1238N (competitor); self-competition value subtracted
# Procedure: as §1
row,Binder,Response of mAb-2 Binding to nFel d1 pre-complexed with mAb-1 [nm]
1,B1,0.76
2,B2,0.62
3,B3,0.62
4,B4,0.43

# Biological target: T1, natural Fel d1 (Indoor Biotech, …)
# Experiment: Octet BLI sandwich; nFel d1 pre-complexed with captured mAb-1 H4H1616N (competitor); self-competition value subtracted
# Procedure: as §1
row,Binder,Response of mAb-2 Binding to nFel d1 pre-complexed with mAb-1 [nm]
1,B1,0.18
2,B2,-0.01
3,B3,-0.01
4,B4,0

# Biological target: T1, natural Fel d1 (Indoor Biotech, …)
# Experiment: Octet BLI sandwich; nFel d1 pre-complexed with captured mAb-1 H4H2597P (competitor); self-competition value subtracted
# Procedure: as §1
row,Binder,Response of mAb-2 Binding to nFel d1 pre-complexed with mAb-1 [nm]
1,B1,-0.03
2,B2,0.54
3,B3,0.55
4,B4,0.4

# Biological target: T1, natural Fel d1 (Indoor Biotech, …)
# Experiment: Octet BLI sandwich; nFel d1 pre-complexed with captured mAb-1 H4H2636P (competitor); self-competition value subtracted
# Procedure: as §1
row,Binder,Response of mAb-2 Binding to nFel d1 pre-complexed with mAb-1 [nm]
1,B1,0.29
2,B2,0
3,B3,0
4,B4,0.01

# Biological target: T1, natural Fel d1 (Indoor Biotech, …)
# Experiment: Octet BLI sandwich; nFel d1 pre-complexed with captured mAb-1 H4H2645P (competitor); self-competition value subtracted
# Procedure: as §1
row,Binder,Response of mAb-2 Binding to nFel d1 pre-complexed with mAb-1 [nm]
1,B2,-0.01
2,B3,0
3,B4,0.01

# Biological target: T1, natural Fel d1 (Indoor Biotech, …)
# Experiment: Octet BLI sandwich; nFel d1 pre-complexed with captured mAb-1 H4H2864P (competitor); self-competition value subtracted
# Procedure: as §1
row,Binder,Response of mAb-2 Binding to nFel d1 pre-complexed with mAb-1 [nm]
1,B1,0.3
2,B2,0
3,B3,-0.01
4,B4,0.01
